In patent US20180335429:

Assays:
[1] = test system: MMP substrate, 5-FAM-GGPLGVRGKK(CPQ2)-PEG2-C, presented on the iron-oxide nanoparticle (ABN) surface
[2] = test system: T1, thrombin substrate, 5-FAM-GGfPRSGGGK(CPQ2)-PEG2-C, presented on the nanoparticle surface
T1 sequence: GGFPRSGGGKC

Sequence of recombinant MMP-9 (Enzo Life Sciences) (chain, as listed by the source): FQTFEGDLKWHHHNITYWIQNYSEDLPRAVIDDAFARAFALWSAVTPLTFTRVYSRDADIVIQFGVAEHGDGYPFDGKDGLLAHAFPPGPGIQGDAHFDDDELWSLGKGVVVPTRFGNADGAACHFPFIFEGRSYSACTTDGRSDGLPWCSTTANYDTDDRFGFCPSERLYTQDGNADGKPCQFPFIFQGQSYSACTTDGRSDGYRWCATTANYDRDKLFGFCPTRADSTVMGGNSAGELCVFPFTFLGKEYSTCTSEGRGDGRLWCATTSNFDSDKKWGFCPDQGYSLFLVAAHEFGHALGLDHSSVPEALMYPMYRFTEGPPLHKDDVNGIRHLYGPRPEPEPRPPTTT

Row | Substance | cleavage velocity (V) at 6 µM substrate, high end over the tether lengths tested (0, 4, 24 and 114 PEG subunits) [1] | cleavage velocity (V) at 6 µM substrate, low end over the tether lengths tested (0, 4, 24 and 114 PEG subunits) [1] | fold change of cleavage with tether length at 6 µM substrate [1] | cleavage velocity (V) at 6 µM substrate, long tether end [1] | cleavage velocity (V) at 6 µM substrate, short tether end [1] | cleavage of the substrate at varying linker lengths [2]
1 | recombinant MMP-9 (Enzo Life Sciences) | cleavage velocity (V) increased from 0.24 to 0.96 nM s^-1 at 6 µM | cleavage velocity (V) increased from 0.24 to 0.96 nM s^-1 at 6 µM | MMP9 cleavage was found to increase 4-fold for 6 µM of substrate |  |  | 
2 | thrombin (Haematologic Technologies) |  |  | thrombin cleavage decreased 1-fold at the same substrate concentration | V at 6 µM of substrate decreased from 0.29 to 0.01 nM s^-1 | V at 6 µM of substrate decreased from 0.29 to 0.01 nM s^-1 | thrombin cleavage of a thrombin-selective substrate (fPRSGGG ...) was optimally presented at an intermediate length
